Patent US20130196923A1, “NOVEL PEPTIDES WHICH HAVE ANALGESIC EFFECTS AND WHICH INHIBIT ASIC CHANNELS” (CENTRE NATIONAL DE LA RESERCHE SCIENTIFIQUE-CNRS, published 2013)
Read-outs that look alike come from different tables or passages of the source.

Tests used:
[1] = target: rat homomeric ASIC1b channel (rat) (UniProt P55926)
[2] = target: rat homomeric ASIC1b channel (rat) (UniProt P55926); remark: listed apart in the source
[3] = target: rat homomeric ASIC1a channel (rat, UniProt P55926); assay: cell-based or functional assay
[4] = target: human homomeric ASIC1a channel (human, UniProt P78348); assay: cell-based or functional assay
[5] = target: rat heteromeric ASIC1a+ASIC1b channel (rat, UniProt P55926); assay: cell-based or functional assay
[6] = target: rat heteromeric ASIC1a+ASIC2a channel (rat, UniProt P55926); assay: cell-based or functional assay
[7] = target: human heteromeric ASIC1a+ASIC2a channel (human, UniProt P78348); assay: cell-based or functional assay

Molecule	inhibition of the acid-evoked ASIC current, patch clamp whole cell, COS cells [1]	inhibition of the acid-evoked ASIC current, patch clamp whole cell, COS cells [2]	inhibition of the acid-evoked ASIC current, patch clamp whole cell, COS cells [3]	inhibition of the acid-evoked ASIC current, patch clamp whole cell, COS cells [4]	inhibition of the acid-evoked ASIC current, patch clamp whole cell, COS cells [5]	inhibition of the acid-evoked ASIC current, patch clamp whole cell, COS cells [6]	inhibition of the acid-evoked ASIC current, patch clamp whole cell, COS cells [7]
ASICalgin-1 (π-Dp1) (peptide)	650 nM						
ASICalgin-2 (π-Dp2) (peptide) peptide: LKCFQHGKVVTCHRDMKFCYHNTGMPFRNLKLILQGCSSSCSETENNKCCSTDRCNK		650 nM	49 nM	127 nM	223 nM	308 nM	308 nM
ASICalgin-1 (π-Dp1) (peptide) peptide: LKCYQHGKVVTCHRDMKFCYHNTGMPFRNLKLILQGCSSSCSETENNKCCSTDRCNK			49 nM	127 nM	223 nM	308 nM	308 nM
